Test results as given in patent publication US20040106198A1, “Inhibition of peptide cleavage in plants” (LARGE SCALE BIOLOGY CORPORATION, priority 2002, published 2004).

Tested on: CD34+
Assay: CD34+ proliferation assays
Type: cell-based
Settings: proteins purified from plants
Procedure: The vectors were used to inoculate plant leaves of different sets of plants as described in the examples above. Both plant homogenates and interstitial fluid were extracted as described above. hSCF and pSCF were each purified from 27 plants to yield 0.85 mg (˜15 mg/kg) and 2.5 mg (˜45 mg/kg) of protein respectively.

B1: pSCF: porcine Stem Cell growth Factor expressed in plants from GENEWARE vector (protein)
chain: QGICRNRVTDDVKDVTKLVANLPKDYKITLKYVPGMDVLPSHCWISEMVEQLSVSLTDLLDKFSNISEGLSNYSIIDKLVKIVDDLVECMEEHSFENVKKSSKSPEPRLFTPEKFFGIFNRSIDAFKDLEMVAPKTSECVISSTLTPEKDSRVSVTKPFMLPPVAA
B1 was tested, and the “biological activity in CD34+ proliferation assays” value was “biologically active”.
